# Patent US20210032299A1 (Eli Lilly, published 2021)
# Starred links: 1 amine or outer side, 2 acyl side, 3 side chain; linkers in the order of their positions; H or OH if unused. Non-standard residues stand in square brackets, D forms with d. Groups on a side chain read outwards from the residue. No end group written: not given here. *: point of attachment. C20 diacid = O=C(O)CCCCCCCCCCCCCCCCCCC(=O)*; αMePhe(2-F) = C[C@](N)(Cc1ccccc1F)C(=O)O; γGlu = O=C(O)[C@H](CCC(=O)[*:2])N[*:1]; 4Pal = N[C@@H](Cc1ccncc1)C(=O)O; αMeL = CC(C)C[C@](C)(N)C(=O)O; AEEA = NCCOCCOCC(=O)O; Aib = CC(C)(N)C(=O)O
# T1: human glucose-dependent insulinotropic peptide receptor (human, UniProt P48546 22-466)
# T1 sequence (looked up): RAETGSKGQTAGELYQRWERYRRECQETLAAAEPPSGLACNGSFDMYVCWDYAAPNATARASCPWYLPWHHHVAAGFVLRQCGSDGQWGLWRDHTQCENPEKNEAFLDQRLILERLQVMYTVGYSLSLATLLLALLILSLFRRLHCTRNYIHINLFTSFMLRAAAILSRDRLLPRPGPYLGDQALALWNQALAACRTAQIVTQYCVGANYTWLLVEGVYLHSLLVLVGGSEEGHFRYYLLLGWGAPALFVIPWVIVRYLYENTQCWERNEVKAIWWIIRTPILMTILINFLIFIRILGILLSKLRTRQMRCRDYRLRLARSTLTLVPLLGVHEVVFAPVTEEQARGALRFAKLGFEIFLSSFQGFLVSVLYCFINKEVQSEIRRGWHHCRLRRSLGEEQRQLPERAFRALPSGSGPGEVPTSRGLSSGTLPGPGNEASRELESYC
# B1: Example 37 (peptide)
# peptide: Y[Aib]EGT[αMePhe(2-F)]ISDYSIALDKK([AEEA-AEEA-γGlu-C20 diacid])HQ[Aib]DFVEYLLEGGPSSGAPPPS-NH2
# modifications: N-terminus assumed
# SMILES: CC[C@H](C)[C@H](NC(=O)[C@H](CO)NC(=O)[C@H](Cc1ccc(O)cc1)NC(=O)[C@H](CC(=O)O)NC(=O)[C@H](CO)NC(=O)[C@@H](NC(=O)[C@](C)(Cc1ccccc1F)NC(=O)[C@@H](NC(=O)CNC(=O)[C@H](CCC(=O)O)NC(=O)C(C)(C)NC(=O)[C@@H](N)Cc1ccc(O)cc1)[C@@H](C)O)[C@@H](C)CC)C(=O)N[C@@H](C)C(=O)N[C@@H](CC(C)C)C(=O)N[C@@H](CC(=O)O)C(=O)N[C@@H](CCCCN)C(=O)N[C@@H](CCCCNC(=O)COCCOCCNC(=O)COCCOCCNC(=O)CC[C@H](NC(=O)CCCCCCCCCCCCCCCCCCC(=O)O)C(=O)O)C(=O)N[C@@H](Cc1c[nH]cn1)C(=O)N[C@@H](CCC(N)=O)C(=O)NC(C)(C)C(=O)N[C@@H](CC(=O)O)C(=O)N[C@@H](Cc1ccccc1)C(=O)N[C@H](C(=O)N[C@@H](CCC(=O)O)C(=O)N[C@@H](Cc1ccc(O)cc1)C(=O)N[C@@H](CC(C)C)C(=O)N[C@@H](CC(C)C)C(=O)N[C@@H](CCC(=O)O)C(=O)NCC(=O)NCC(=O)N1CCC[C@H]1C(=O)N[C@@H](CO)C(=O)N[C@@H](CO)C(=O)NCC(=O)N[C@@H](C)C(=O)N1CCC[C@H]1C(=O)N1CCC[C@H]1C(=O)N1CCC[C@H]1C(=O)N[C@@H](CO)C(N)=O)C(C)C
# B2: Example 35 (peptide)
# peptide: Y[Aib]EGT[αMeL]ISDYSIALDKK([AEEA-AEEA-γGlu-C20 diacid])HQ[Aib]EFVNYLLATGPSSGAPPPS-NH2
# modifications: N-terminus assumed
# SMILES: CC[C@H](C)[C@H](NC(=O)[C@H](CO)NC(=O)[C@H](Cc1ccc(O)cc1)NC(=O)[C@H](CC(=O)O)NC(=O)[C@H](CO)NC(=O)[C@@H](NC(=O)[C@](C)(CC(C)C)NC(=O)[C@@H](NC(=O)CNC(=O)[C@H](CCC(=O)O)NC(=O)C(C)(C)NC(=O)[C@@H](N)Cc1ccc(O)cc1)[C@@H](C)O)[C@@H](C)CC)C(=O)N[C@@H](C)C(=O)N[C@@H](CC(C)C)C(=O)N[C@@H](CC(=O)O)C(=O)N[C@@H](CCCCN)C(=O)N[C@@H](CCCCNC(=O)COCCOCCNC(=O)COCCOCCNC(=O)CC[C@H](NC(=O)CCCCCCCCCCCCCCCCCCC(=O)O)C(=O)O)C(=O)N[C@@H](Cc1c[nH]cn1)C(=O)N[C@@H](CCC(N)=O)C(=O)NC(C)(C)C(=O)N[C@@H](CCC(=O)O)C(=O)N[C@@H](Cc1ccccc1)C(=O)N[C@H](C(=O)N[C@@H](CC(N)=O)C(=O)N[C@@H](Cc1ccc(O)cc1)C(=O)N[C@@H](CC(C)C)C(=O)N[C@@H](CC(C)C)C(=O)N[C@@H](C)C(=O)N[C@H](C(=O)NCC(=O)N1CCC[C@H]1C(=O)N[C@@H](CO)C(=O)N[C@@H](CO)C(=O)NCC(=O)N[C@@H](C)C(=O)N1CCC[C@H]1C(=O)N1CCC[C@H]1C(=O)N1CCC[C@H]1C(=O)N[C@@H](CO)C(N)=O)[C@@H](C)O)C(C)C
# B3: Example 36 (peptide)
# peptide: Y[Aib]EGT[αMePhe(2-F)]ISDYSIALDKK([AEEA-AEEA-γGlu-C20 diacid])HQ[Aib]DFVEYLLETGPSSGAPPPS-NH2
# modifications: N-terminus assumed
# SMILES: CC[C@H](C)[C@H](NC(=O)[C@H](CO)NC(=O)[C@H](Cc1ccc(O)cc1)NC(=O)[C@H](CC(=O)O)NC(=O)[C@H](CO)NC(=O)[C@@H](NC(=O)[C@](C)(Cc1ccccc1F)NC(=O)[C@@H](NC(=O)CNC(=O)[C@H](CCC(=O)O)NC(=O)C(C)(C)NC(=O)[C@@H](N)Cc1ccc(O)cc1)[C@@H](C)O)[C@@H](C)CC)C(=O)N[C@@H](C)C(=O)N[C@@H](CC(C)C)C(=O)N[C@@H](CC(=O)O)C(=O)N[C@@H](CCCCN)C(=O)N[C@@H](CCCCNC(=O)COCCOCCNC(=O)COCCOCCNC(=O)CC[C@H](NC(=O)CCCCCCCCCCCCCCCCCCC(=O)O)C(=O)O)C(=O)N[C@@H](Cc1c[nH]cn1)C(=O)N[C@@H](CCC(N)=O)C(=O)NC(C)(C)C(=O)N[C@@H](CC(=O)O)C(=O)N[C@@H](Cc1ccccc1)C(=O)N[C@H](C(=O)N[C@@H](CCC(=O)O)C(=O)N[C@@H](Cc1ccc(O)cc1)C(=O)N[C@@H](CC(C)C)C(=O)N[C@@H](CC(C)C)C(=O)N[C@@H](CCC(=O)O)C(=O)N[C@H](C(=O)NCC(=O)N1CCC[C@H]1C(=O)N[C@@H](CO)C(=O)N[C@@H](CO)C(=O)NCC(=O)N[C@@H](C)C(=O)N1CCC[C@H]1C(=O)N1CCC[C@H]1C(=O)N1CCC[C@H]1C(=O)N[C@@H](CO)C(N)=O)[C@@H](C)O)C(C)C
# B4: Example 39 (peptide)
# peptide: Y[Aib]EGT[αMePhe(2-F)]ISDYSIALDKK([AEEA-AEEA-γGlu-C20 diacid])HQ[Aib]DFVE[4Pal]LLEGGPSSGAPPPS-NH2
# modifications: N-terminus assumed
# SMILES: CC[C@H](C)[C@H](NC(=O)[C@H](CO)NC(=O)[C@H](Cc1ccc(O)cc1)NC(=O)[C@H](CC(=O)O)NC(=O)[C@H](CO)NC(=O)[C@@H](NC(=O)[C@](C)(Cc1ccccc1F)NC(=O)[C@@H](NC(=O)CNC(=O)[C@H](CCC(=O)O)NC(=O)C(C)(C)NC(=O)[C@@H](N)Cc1ccc(O)cc1)[C@@H](C)O)[C@@H](C)CC)C(=O)N[C@@H](C)C(=O)N[C@@H](CC(C)C)C(=O)N[C@@H](CC(=O)O)C(=O)N[C@@H](CCCCN)C(=O)N[C@@H](CCCCNC(=O)COCCOCCNC(=O)COCCOCCNC(=O)CC[C@H](NC(=O)CCCCCCCCCCCCCCCCCCC(=O)O)C(=O)O)C(=O)N[C@@H](Cc1c[nH]cn1)C(=O)N[C@@H](CCC(N)=O)C(=O)NC(C)(C)C(=O)N[C@@H](CC(=O)O)C(=O)N[C@@H](Cc1ccccc1)C(=O)N[C@H](C(=O)N[C@@H](CCC(=O)O)C(=O)N[C@@H](Cc1ccncc1)C(=O)N[C@@H](CC(C)C)C(=O)N[C@@H](CC(C)C)C(=O)N[C@@H](CCC(=O)O)C(=O)NCC(=O)NCC(=O)N1CCC[C@H]1C(=O)N[C@@H](CO)C(=O)N[C@@H](CO)C(=O)NCC(=O)N[C@@H](C)C(=O)N1CCC[C@H]1C(=O)N1CCC[C@H]1C(=O)N1CCC[C@H]1C(=O)N[C@@H](CO)C(N)=O)C(C)C
# B5: Example 34 (peptide)
# peptide: Y[Aib]EGT[αMePhe(2-F)]ISDYSIALDKK([AEEA-AEEA-γGlu-C20 diacid])HQ[Aib]EFVNYLLATGPSSGAPPPS-NH2
# modifications: N-terminus assumed
# SMILES: CC[C@H](C)[C@H](NC(=O)[C@H](CO)NC(=O)[C@H](Cc1ccc(O)cc1)NC(=O)[C@H](CC(=O)O)NC(=O)[C@H](CO)NC(=O)[C@@H](NC(=O)[C@](C)(Cc1ccccc1F)NC(=O)[C@@H](NC(=O)CNC(=O)[C@H](CCC(=O)O)NC(=O)C(C)(C)NC(=O)[C@@H](N)Cc1ccc(O)cc1)[C@@H](C)O)[C@@H](C)CC)C(=O)N[C@@H](C)C(=O)N[C@@H](CC(C)C)C(=O)N[C@@H](CC(=O)O)C(=O)N[C@@H](CCCCN)C(=O)N[C@@H](CCCCNC(=O)COCCOCCNC(=O)COCCOCCNC(=O)CC[C@H](NC(=O)CCCCCCCCCCCCCCCCCCC(=O)O)C(=O)O)C(=O)N[C@@H](Cc1c[nH]cn1)C(=O)N[C@@H](CCC(N)=O)C(=O)NC(C)(C)C(=O)N[C@@H](CCC(=O)O)C(=O)N[C@@H](Cc1ccccc1)C(=O)N[C@H](C(=O)N[C@@H](CC(N)=O)C(=O)N[C@@H](Cc1ccc(O)cc1)C(=O)N[C@@H](CC(C)C)C(=O)N[C@@H](CC(C)C)C(=O)N[C@@H](C)C(=O)N[C@H](C(=O)NCC(=O)N1CCC[C@H]1C(=O)N[C@@H](CO)C(=O)N[C@@H](CO)C(=O)NCC(=O)N[C@@H](C)C(=O)N1CCC[C@H]1C(=O)N1CCC[C@H]1C(=O)N1CCC[C@H]1C(=O)N[C@@H](CO)C(N)=O)[C@@H](C)O)C(C)C
# B6: Example 38 (peptide)
# peptide: Y[Aib]EGT[αMePhe(2-F)]ISDYSIALDKK([AEEA-AEEA-γGlu-C20 diacid])HQ[Aib]DFVE[4Pal]LLETGPSSGAPPPS-NH2
# modifications: N-terminus assumed
# SMILES: CC[C@H](C)[C@H](NC(=O)[C@H](CO)NC(=O)[C@H](Cc1ccc(O)cc1)NC(=O)[C@H](CC(=O)O)NC(=O)[C@H](CO)NC(=O)[C@@H](NC(=O)[C@](C)(Cc1ccccc1F)NC(=O)[C@@H](NC(=O)CNC(=O)[C@H](CCC(=O)O)NC(=O)C(C)(C)NC(=O)[C@@H](N)Cc1ccc(O)cc1)[C@@H](C)O)[C@@H](C)CC)C(=O)N[C@@H](C)C(=O)N[C@@H](CC(C)C)C(=O)N[C@@H](CC(=O)O)C(=O)N[C@@H](CCCCN)C(=O)N[C@@H](CCCCNC(=O)COCCOCCNC(=O)COCCOCCNC(=O)CC[C@H](NC(=O)CCCCCCCCCCCCCCCCCCC(=O)O)C(=O)O)C(=O)N[C@@H](Cc1c[nH]cn1)C(=O)N[C@@H](CCC(N)=O)C(=O)NC(C)(C)C(=O)N[C@@H](CC(=O)O)C(=O)N[C@@H](Cc1ccccc1)C(=O)N[C@H](C(=O)N[C@@H](CCC(=O)O)C(=O)N[C@@H](Cc1ccncc1)C(=O)N[C@@H](CC(C)C)C(=O)N[C@@H](CC(C)C)C(=O)N[C@@H](CCC(=O)O)C(=O)N[C@H](C(=O)NCC(=O)N1CCC[C@H]1C(=O)N[C@@H](CO)C(=O)N[C@@H](CO)C(=O)NCC(=O)N[C@@H](C)C(=O)N1CCC[C@H]1C(=O)N1CCC[C@H]1C(=O)N1CCC[C@H]1C(=O)N[C@@H](CO)C(N)=O)[C@@H](C)O)C(C)C
# Molecular target: T1, human glucose-dependent insulinotropic …
# Experiment: cell-based or functional assay
row,Binder,hGIPR cAMP Rel EC50 [nM]
1,B1,0.036
2,B2,0.0125
3,B3,0.0543
4,B4,0.0112
5,B5,0.0177
6,B6,0.0368

# Molecular target: human GLP-1 receptor (human, UniProt P43220 24-463)
# Experiment: cell-based or functional assay
row,Binder,hGLP1R cAMP Rel EC50 [nM]
1,B1,61.1
2,B2,> 5000
3,B3,1080
4,B4,3330
5,B5,462
6,B6,1390

# Molecular target: human glucagon receptor (human, UniProt P47871 26-477)
# Sequence (P47871 26-477): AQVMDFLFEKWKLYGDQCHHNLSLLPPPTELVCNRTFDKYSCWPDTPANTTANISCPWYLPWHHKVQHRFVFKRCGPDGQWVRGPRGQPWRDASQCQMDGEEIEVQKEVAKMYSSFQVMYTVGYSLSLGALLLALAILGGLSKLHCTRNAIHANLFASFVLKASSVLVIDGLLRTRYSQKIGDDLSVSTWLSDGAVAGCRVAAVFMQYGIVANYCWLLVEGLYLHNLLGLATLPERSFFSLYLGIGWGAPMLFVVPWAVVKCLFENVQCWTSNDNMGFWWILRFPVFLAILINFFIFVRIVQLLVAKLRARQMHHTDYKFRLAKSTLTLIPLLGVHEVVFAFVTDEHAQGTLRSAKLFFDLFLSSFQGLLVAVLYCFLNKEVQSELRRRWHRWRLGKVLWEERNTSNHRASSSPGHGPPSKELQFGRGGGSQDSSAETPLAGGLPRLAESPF
# Experiment: cell-based or functional assay
row,Binder,hGcgR cAMP Rel EC50 [nM]
1,B1,> 5000
2,B2,> 5000
3,B3,> 5000
4,B4,> 5000
5,B5,913
6,B6,> 5000
